This note sets out measurements from article PMC13631358.

The assay has as its target tapasin-ERp57 heterodimer (ER-lumenal domain of tapasin, full-length ERp57 Cys36Ala), disulfide-linked (human) (UniProt P30101). Nature of the assay: ITC; Crt or Crt^Δacidic (titrant, 500 µM) into tapasin-ERp57 heterodimer (analyte, 19 µM; no PaSta1 Fab named); 25 °C; 50 mM HEPES-NaOH pH 7.4, 150 mM NaCl, 1 mM CaCl2.

The substance “calreticulin (amino acids 18-417) (from UniProt P27797 18-417) (natural protein)” gave a dissociation constant Kd of 4.2 µM. In other words, the single-digit micromolar range.

As usually defined, the Kd is the free concentration of one partner at which half of the binding sites on the other are occupied at equilibrium, for simple one-to-one binding. Higher therefore signals weaker binding.
